Consider 1 molecule from patent US20050196380A1, “Method for delivering therapeutic proteins to the intradermal compartment” (priority 2004, published 2005).

Data set [1] concerns female Wistar rats. The data set can be described thus: Isotype specific (IgG1, IgG2b) antibody response against IFN-β by ELISA. The class given is in vivo, rat. The protocol:
Isotype specific antibody responses against IFN-β were determined at weeks 2 and 24 post-injection using an ELISA Quantification Kit, commercially available from Bethyl Laboratories (Bethyl Inc., Montgomery, Tex.). A 96 well microtiter plate (Nunc Maxi-sorb plate) was coated with 1 μg/mL of IFN antigen and incubated overnight at 4° C. (to generate a standard curve wells were coated with 1 μL of capture antibody to 100 μL coating buffer); plates were washed with 50 mM Tris buffered saline, pH 8.0, 0.05% Tween (Sigma #T9039); 200 μL of Post Coat/Block solution (50 mM Tris buffered saline, pH 8.0, 1% BSA; Sigma #T6789) was added per well and incubated covered for 30 minutes at room temperature. Standards were prepared according to the package insert using the Sample/Conjugate Diluent (0.5 mL of 10% Tween 20; Sigma # P7949) per 100 mL of PostCoat/Block Solution; sample dilutions were made using the Sample/Conjugate Diluent; 100 μL of standard or sample was transferred to assigned wells and incubated for 1 hour at room temperature; conjugate was prepared according to package insert (1:20,000 for IgG1 and 1:40,000 for IgG2b); 100 μL of the conjugate was added per well and incubated for 1 hour at room temperature; 100 μL of TMB per well was added and incubated at room temperature for 30 minutes; 200 μL of 0.5 M H2SO4 per well was added to stop the reaction; plates were read at 450 nm.
(§1) Blood samples were collected once a week.
On the technique in general: ELISA stands for enzyme-linked immunosorbent assay.

Data set [2] concerns female Wistar rats. The data set can be described thus: Visual observation of injection site irritation. It is filed as in vivo, rat. As to conditions: ID administration, 3 times/wk for 24 weeks.
Text: as §1
FIGS. 16A-B show injection site photos of IFN-β to female Wistar rats. Panel A is an intramuscular injection. The back of a rat's leg is shown. The injection was made into the hamstring muscle. Panel B is an intradermal injection on the rat's back. The “bleb” is circled. No irritation is evident in either photo. These photos were taken immediately post-injection.

Data set [3] concerns female Wistar rats. As to conditions: rat, in vivo.
Description: MATERIALS AND METHODS: Antibody titers were evaluated using an ELISA assay. 100 μL of 1 μg/mL of rat interferon beta (Cell Sciences Inc. (Canton, Mass.)) in coating buffer was added to the wells of a 96 well plate. The plate was incubated at 4° C. overnight. Well contents were removed and the wells were blocked with 5% skim milk in PBST for 2 hours at 37° C. Wells were washed and 100 μL of serum samples were added to the first row of wells. Samples were serially diluted across the plate. The plate was incubated for 1 hour at 37° C. and washed. 100 μL of 1:4000 diluted, anti-rat HRP-conjugated antibody was added to each well and the plate was incubated for 30-60 minutes at 37° C. 100 μL of TMB color developer was added to each well. 200 μL of hydrochloric acid reaction stopper was added to each well. The plate was read at 450 nm. The antibody titer is the dilution giving 3 times absorbance of blank serum.
STUDY DESIGN: A chronic dosing regimen was performed in female Wistar rats using recombinant rat IFN-β (Cell Sciences Inc. (Canton, Mass.)). An injection route comparison was performed evaluating the immunogenicity of IFN-β upon injection intradermally or intramuscularly. IFN-β was injected intradermally using BD's 34 Ga, 1 mm needle and injected intramuscularly using BD 30 Ga×0.5″ to the hamstring muscle. […] Blood samples were collected once a week.
Data set [4] relates to female Wistar rats. As to conditions: rat, in vivo. This is another data set of the same source.
Data set [5] has as its system female Wistar rats. Kind of data set: Histological evaluation of injection site following IM and ID administration of interferon-beta. The class given is in vivo, rat. An excerpt: Sample Preparation: For ID injection, the skin was removed from each injection site and placed on a small card. The excised skin was approximately lcm in diameter with the needle insertion point in the center. The center of the injection was marked with black tattoo ink at time of injection to help identify the needle insertion point. Samples were placed in individual containers with 10% formalin for fixation. For IM injection, the needle insertion point was marked with black tattoo ink at the time of injection. The skin was carefully lifted and the muscle surface directly below the needle insertion point was marked with black tattoo ink. The hamstring muscle was collected and placed on a small card. Samples were placed in individual containers with 10% formalin for fixation. […]
Sample Identification: Samples are identified by the following system. In animals 801, 803, 804, 806, 807, 808, 809 and 810 intramuscular injections were made to the hamstring muscle of female Wistar rats. In animals 811, 812, 813, 814, 815, 816, 817, 818, 819 and 820 intradermal injections (approximately 1 mm deep) were made to the lateral dorsum of female Wistar rats.
Specimen Preparation: A single section was taken from each sample. Tissue was blocked to a size appropriate for sectioning. The section was taken through the needle insertion track. Sections were H&E stained and evaluated. If evidence of irritation was observed, further sections were taken to determine the extent of the irritation. Samples were graded on a multi-parameter irritancy scale. Histological alterations were graded on the following 5-grade scale: • Grade 0: Normal/Absent/None • Grade 1: Minimal/Cell Degeneration • Grade 2: Mild/Cell Necrosis • Grade 3: Moderate/Focal Erosion • Grade 4: Marked/Massive/Generalized Erosion • Present: Finding present/Severity not scored
In addition to the grading scale, descriptions of changes and findings were documented. Measurements were taken of the Width and Depth of any site irritation as well as skin thickness. Representative photos were taken of each condition.
Study Design: Rat interferon beta (Cell Sciences Inc. (Canton, Mass.)) was administered IM or ID in phosphate buffered saline using methods described supra. The animals were divided according to the following scheme:
Intramuscular Group—Day 1: The hair on the back and on the back of the rear leg was clipped. Injection was performed using a BD 30 G×0.5″ needle to the hamstring muscle. 50 μL was injected. The center of the injection was marked with black tattoo ink to help aid in injection track identification. Rats were returned to their cages for recovery.
Intramuscular Group—Day 2 (24 hrs. post-injection): Rats were euthanized by CO2 asphxiation and the skin from rear leg was removed. The muscle directly below the needle insertion point on the skin was marked with black tattoo ink. The hamstring muscle was excised, placed on small card and stored in 10% formalin solution.
Intradermal group-Day 1 The hair on the lateral dorsum was closely clipped. and injection was performed using a 1 mm BD microneedle. 50 μL was injected The center of the injection was marked with black tattoo ink to help aid needle track identification. Rats were returned to their cages for recovery.
[…] A 1 cm diameter margin of skin (full-thickness) around the injection site was excised. Skin was placed on a small card and stored in 10% formalin solution.

Where [6] appears, read: ID injection, individual animals, marked grade.

“And” between values parts separate entries of the source, which are not always exact repeats. Equal entries are not always repeated. “Also recorded” adds a separate entry of the source.

B1: IFN-β: recombinant rat IFN-β (Cell Sciences Inc., Canton, Mass.) (protein, UniProt P70499 22-184, looked up)
Interferon beta: IDYKQLQFRQSTSIRTCQKLLRQLNGRLNLSYRTDFKIPMEVMHPSQMEKSYTAFAIQVMLQNVFLVFRSNFSSTGWNETIVESLLDELHQQTELLEIILKEKQEERLTWVTSTTTLGLKSYYWRVQRYLKDKKYNSYAWMVVRAEVFRNFSIILRLNRNFQN
In the case of B1, in the data set with female Wistar rats [1] (week 2), the “IFN-β specific IgG1 antibody, ID vs IM” value was “only one animal showed any detectable IgG1 antibody; also recorded: higher”. Moreover, the “IFN-β specific IgG2b antibody” value in the data set on female Wistar rats [1] (week 2, IM or ID) is on record as “no IgG2b was detectable”. Further, in the data set with female Wistar rats [1] (week 24), the “mean IFN-β specific IgG2b concentration, ID vs IM” value was “not significantly different; also recorded: comparable”. Moreover, the “acute or chronic injection site irritation (external, visual)” value in the data set with female Wistar rats [2] is recorded as “No external acute or chronic injection site irritation”. Moreover, in the data set with female Wistar rats [3], the “animals with increase in titer from week 12” value is reported as “one”; the “animals with marked increase in titer from week 12” value was “Three”; the “antibody response, ID vs IM” value is given as “slightly stronger”; the “antibody response, IM vs ID” value was “slightly higher”. Further, in the data set on female Wistar rats [3], the “antibody titers by ELISA, IM vs ID” value was “not significantly different”; the “mean antibody response, IM vs ID” value was “higher mean antibody response”; the “mean antibody titers by ELISA, IM vs ID (two sample t-test)” value was “not significantly different”. Further, the “mean IFN-β specific NAbs titers, IM vs ID” value in the data set with female Wistar rats [4] is listed as “not significantly different”. For the same molecule, the “cellular reaction, in general” value with female Wistar rats [5] (2 weeks) was “minimal”. Moreover, in the data set on female Wistar rats [5] (2 weeks, intradermal sites), the “infiltration of injection sites with lymphocytes and neutrophils” value was “minimally infiltrated”. The “inflammatory cell infiltrates of injection sites, compared with intradermal sites” value in the data set on female Wistar rats [5] (2 weeks, intramuscular sites) was “more prominent”. For the same molecule, the “cellular reaction (inflammation)” value in the data set with female Wistar rats [5] (24 weeks, ID injection) is “minimal to moderate”. Further, the “Irritation Index” value in the data set with female Wistar rats [5] (ID injection, individual animals 811-820, 24 hours post-injection) was 3 and 2. Further, in the data set with female Wistar rats [5] (setting [6]), the “Dermis, leukocyte infiltration (per 40× field)” value is given as “Moderate - 51-100 (Moderate - 51-100)”; the Edema grade entry is “Absent”; the Epidermis reaction grade result is recorded as “Normal, intact”; the “Vascular Congestion grade” value is “Absent”. In addition, the “overall irritation index designation / histopathological classification of irritation” value in the data set with female Wistar rats [5] (ID sites) is recorded as “minimal”.
